# Article PMC6185872 (Cell Host & Microbe, 2018)
# B1: 21c Fab (Fab, V domains shown)
# VH: QVQVVQSGAEVRKPGASVKVSCKVSGFTLTGLSIHWVRQAPGKGLEWMGGFGPEENEIIYAQKFQGRVSMTEDTSTNTAYMELSSLRSEDTAVYYCATGGNYYNLWTGYYPLAYWGQGTLVTVSS
# VL: QSVLTQPPSVSAAPGQKVTISCSGSSSNIGKNYVSWYQQLPGAAPKLLIFDDTQRPSGIPDRFSGSKSGTSATLAITGLQTGDEADYYCGTWDSSLSTGQLFGGGTKLTVL
# notes: also called CD4i antibody 21c
# Legend:
# [1] = biological target: T1, sCD4 D1D2 (domains 1 and 2; residues 1-186 of mature CD4); assay: cryo-EM structure; settings: both partners purified
# T1 construct: also called soluble CD4; source: HEK293-6E, transient transfection, purified (Ni-NTA, SEC)
# B41 SOSIP.664 v4.2 = biological target: T2, B41 SOSIP.664 v4.2 (HIV-1 (clade B B41)); assay: cryo-EM structure; settings: both partners purified
# T2 construct: copies: 3 + 3
binder,measurement,setting,value
B1,binding result,[1],binds
same,stoichiometry N,B41 SOSIP.664 v4.2,3 copies per Env trimer
